Four molecules from paper PMC10275983 (Nature Communications, 2023) can be followed below.

No end group written: not given here.

In the assay the target is S1-RBD (ACROBiosystems SPD-C82E9) (SARS-CoV-2 (Wuhan-Hu-1 strain), UniProt P0DTC2 319-541). Nature of the assay: SPR. The conditions noted are these: both partners purified.
On to ACANPDNPVCRFYCA (not fully specified (bridges); also: bicyclic peptide, scaffold not named) [E5 Bicycle (canonical exemplar of epitope group 5)], for which the binding result is “binds”.
As to ACEYVGPMCYRLYCA (not fully specified (bridges); also: Bicycle) [E1 Bicycle (exemplar of epitope group 1)], the binding result is given as “binds”.
ACPYVAGRGTCLLCA (not fully specified (bridges); cysteine pairing not given here) [E2 Bicycle (canonical exemplar of epitope group 2)]: the binding result is “binds”.
As for ACEDNDWVYCSTCA (not fully specified (bridges); also: bicyclic peptide, scaffold not named) [E3 Bicycle (exemplar of epitope group 3)], the binding result is on record as “binds”.
